Test results from US20130053541A1, “METHODS FOR DISCOVERING MOLECULES THAT BIND TO PROTEINS” (LYNNTECH, INC., priority 2011, published 2013).
Where no end group is shown, it is not given here.

T1: native human ESRRG protein (Estrogen-receptor related receptor gamma) (human, UniProt P62508 229-458, limits assumed)
T1 construct: the screened protein is called 'native human ESRRG protein'; also called ESSRG; ERRγ
T1 sequence (looked up): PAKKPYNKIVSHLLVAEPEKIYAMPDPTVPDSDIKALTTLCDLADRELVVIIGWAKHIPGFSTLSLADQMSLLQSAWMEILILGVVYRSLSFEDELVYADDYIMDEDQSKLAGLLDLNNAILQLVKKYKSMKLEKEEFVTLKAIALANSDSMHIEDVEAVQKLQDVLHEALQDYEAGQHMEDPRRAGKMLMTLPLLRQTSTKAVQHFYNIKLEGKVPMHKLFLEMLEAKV


Key:
[1] = molecular target: T1, native human ESRRG protein …; assay: peptide microarray, Iteration 2; bound ESRRG detected with fluorescent anti-ESRRG mAb
Experimental: (§1) Screening was carried out typically by hybridization of the protein (1 μg/mL) against the array for 1 h at 4° C.; detection of bound protein was carried out using a fluorescently labeled anti-ESRRG mAb. (Direct labeling of ESRRG and alternative detection strategies are equally valid).
Iterative sequence expansion and arraying of 10 highest binding ligands to ESRRG from Iteration 1 was carried out and the new peptide sequences were synthesized on an array and screened against the protein, as described above. In this step, the central 2 amino acids (core) in peptide sequences were maintained unchanged while outlying amino acids (2, 3, 6, and 7) were permuted (using Tier 1 and Tier 3 substitutions) in a ‘cipher’ or ‘combination’ lock approach.

[2] = molecular target: T1, native human ESRRG protein …; assay: peptide microarray, Iteration 1; bound ESRRG detected with fluorescent anti-ESRRG mAb
Experimental: as §1
Daughter candidate ligands and their new Tier 3 and/or Tier 1 based combinations were synthesized in situ on an addressable peptide microarray and screened against native human ESRRG protein in order to determine sequences that bind to this protein. Bound protein was detected by a fluorescently labeled anti-ESRRG mAb. […] Excess (100×) competing biological matrices (human serum, HSA/BSA or bacterial protein extract) were used as backgrounds to select for specific ligands to the protein. Other competing proteins can be added to background for specificity selection and directed evolution of ligands.

[3] = molecular target: T1, native human ESRRG protein …; assay: custom peptide microarray density chip

Sample B (Probe) Signal [1] | log2 (Sample B/Sample A) [1] | Sample B (Probe) Signal [2] | log2 (Sample B/Sample A) [2] | Kd [3] | Binder
1010 fluorescence intensity units | 2.08 | – | – | – | Ac-IFLLQQDN
– | – | 7390 fluorescence intensity units | 6.38 | – | Ac-KSLLQQLL
– | – | 1320 fluorescence intensity units | 6.51 | – | Ac-ANNSLLLH
– | – | 1670 fluorescence intensity units | 4.88 | – | Ac-ANNLKLLH
– | – | 955 fluorescence intensity units | 9.9 | – | Ac-ANNSQLLH
– | – | 806 fluorescence intensity units | 8.57 | – | Ac-ANNIQLLH
– | – | 1090 fluorescence intensity units | 6.34 | – | Ac-ANNILLLH
– | – | 1820 fluorescence intensity units | 4.87 | – | Ac-ANNVSLLH
– | – | 1220 fluorescence intensity units | 5.82 | – | Ac-ANNLSLLH
– | – | 1620 fluorescence intensity units | 5.13 | – | Ac-ANNFLLLH
– | – | 1720 fluorescence intensity units | 5.04 | – | Ac-ANNVKLLH
– | – | 1010 fluorescence intensity units | 5.42 | – | Ac-ANNSKLLH
– | – | 2000 fluorescence intensity units | 4.92 | – | Ac-ANNVLLLH
– | – | 1260 fluorescence intensity units | 5.97 | – | Ac-ANNSWLLH
– | – | – | – | 0.0189 µM | Ac-ANNIRLLH
– | – | 1010 fluorescence intensity units | 5.05 | – | Ac-ANNIWLLH
– | – | 1610 fluorescence intensity units | 5.26 | – | Ac-ANNLWLLH
– | – | 1540 fluorescence intensity units | 5.03 | – | Ac-ANNLQLLH
– | – | 1150 fluorescence intensity units | 7.29 | – | Ac-ANNSSLLH
440 fluorescence intensity units | 1.93 | – | – | – | Ac-AFNMYLDE
– | – | 740 fluorescence intensity units | 4.97 | – | Ac-IKQNYNNS
– | – | 935 fluorescence intensity units | 5.63 | – | Ac-AIRGHLMG
– | – | 690 fluorescence intensity units | 5.87 | – | Ac-AIRVHLMG
2610 fluorescence intensity units | 2.07 | – | – | – | Ac-WRSYPRRA
900 fluorescence intensity units | 1.92 | – | – | – | Ac-FVNFSLGI
441 fluorescence intensity units | 2.03 | – | – | – | Ac-HNNFSLEP

Sample B (Probe) Signal [1] | log2 (Sample B/Sample A) [1] | Sample B (Probe) Signal [2] | log2 (Sample B/Sample A) [2] | Kd [3] | Binder
– | – | 1040 fluorescence intensity units | 5.34 | – | Ac-NSLSWHLL
1200 fluorescence intensity units | 2.05 | – | – | – | Ac-RLLHYGSY
– | – | 961 fluorescence intensity units | 4.86 | – | Ac-LHLRYSQT
– | – | 818 fluorescence intensity units | 5.11 | – | Ac-RKAIFGKY
271 fluorescence intensity units | 1.98 | – | – | – | Ac-DRSYPRHT
– | – | 622 fluorescence intensity units | 6.48 | – | Ac-LHLKGSQT
1660 fluorescence intensity units | 1.9 | – | – | – | Ac-RRSYPRGR
– | – | 9740 fluorescence intensity units | 12 | – | Ac-NSLLQHLL
– | – | 1670 fluorescence intensity units | 6.34 | – | Ac-NSLRSHLL
– | – | 3240 fluorescence intensity units | 6.08 | – | Ac-NSLRQHLL
– | – | 745 fluorescence intensity units | 5.64 | – | Ac-LLHLQKSQ
895 fluorescence intensity units | 2.01 | – | – | – | Ac-WLLLKHGL
746 fluorescence intensity units | 2.02 | – | – | – | Ac-MYKLKQDN
– | – | 863 fluorescence intensity units | 6.58 | – | Ac-NIKVHANN
– | – | 1190 fluorescence intensity units | 5.52 | – | Ac-AANMLLLL
– | – | 1220 fluorescence intensity units | 6.16 | – | Ac-AANMSLLL
– | – | 4010 fluorescence intensity units | 5.95 | – | Ac-AANMYLLL
– | – | 3440 fluorescence intensity units | 6.78 | – | Ac-AANNYLLL
– | – | 2010 fluorescence intensity units | 7.19 | – | Ac-AANYILLL
– | – | 2200 fluorescence intensity units | 7.22 | – | Ac-AANYVLLL
– | – | 3760 fluorescence intensity units | 7.4 | – | Ac-AANYLLLL
– | – | 868 fluorescence intensity units | 4.95 | – | Ac-RKALVGKY
– | – | 729 fluorescence intensity units | 4.95 | – | Ac-NNSWSLHL
998 fluorescence intensity units | 1.94 | – | – | – | Ac-PGKGHFPI
794 fluorescence intensity units | 1.97 | – | – | – | Ac-YFLLQQGP
